The assay addresses T1, His-tagged bacterially expressed MBP-POSH fusion protein (human, UniProt Q7Z6J0 1-888).
T1 sequence (looked up): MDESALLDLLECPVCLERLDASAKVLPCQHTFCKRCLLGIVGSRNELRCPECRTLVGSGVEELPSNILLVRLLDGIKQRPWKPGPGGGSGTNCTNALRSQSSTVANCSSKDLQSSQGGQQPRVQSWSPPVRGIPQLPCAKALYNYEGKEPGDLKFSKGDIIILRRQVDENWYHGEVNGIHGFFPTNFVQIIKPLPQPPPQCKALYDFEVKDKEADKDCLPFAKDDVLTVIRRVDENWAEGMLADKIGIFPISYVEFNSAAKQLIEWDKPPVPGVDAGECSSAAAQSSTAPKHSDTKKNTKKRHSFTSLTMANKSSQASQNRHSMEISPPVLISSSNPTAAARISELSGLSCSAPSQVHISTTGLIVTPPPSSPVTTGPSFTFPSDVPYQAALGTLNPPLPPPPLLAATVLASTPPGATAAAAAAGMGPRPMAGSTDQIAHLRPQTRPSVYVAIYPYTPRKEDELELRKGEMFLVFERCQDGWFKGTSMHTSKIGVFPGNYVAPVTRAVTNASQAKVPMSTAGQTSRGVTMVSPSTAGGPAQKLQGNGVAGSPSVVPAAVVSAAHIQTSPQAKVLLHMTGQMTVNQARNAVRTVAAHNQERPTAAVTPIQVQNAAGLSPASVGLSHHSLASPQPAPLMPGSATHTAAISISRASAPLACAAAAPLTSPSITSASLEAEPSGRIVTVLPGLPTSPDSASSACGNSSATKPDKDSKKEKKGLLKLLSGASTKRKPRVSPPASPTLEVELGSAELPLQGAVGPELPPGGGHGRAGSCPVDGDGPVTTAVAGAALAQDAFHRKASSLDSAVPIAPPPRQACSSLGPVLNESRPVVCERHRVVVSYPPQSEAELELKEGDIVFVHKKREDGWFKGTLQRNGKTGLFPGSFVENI
In words: co-IP.

B1: truncated Herp (tHerp; amino acids 1-272) with FLAG tag (domain or fragment, UniProt Q15011 1-272, looked up)
chain: MESETEPEPVTLLVKSPNQRHRDLELSGDRGWSVGHLKAHLSRVYPERPRPEDQRLIYSGKLLLDHQCLRDLLPKQEKRHVLHLVCNVKSPSKMPEINAKVAESTEEPAGSNRGQYPEDSSSDGLRQREVLRNLSSPGWENISRPEAAQQAFQGLGPGFSGYTPYGWLQLSWFQQIYARQYYMQYLAATAASGAFVPPPSAQEIPVVSAPAPAPIHNQFPAENQPANQNAAPQVVVNPGANQNLRMNAQGGPIVEEDDEINRDWLDWTYSAA
On to B1, for which the binding result is on record as “binds”.

The record behind these values is PMC2064109 (The Journal of Cell Biology, 2007).
